Test results reported in the supplement of paper PMC9233669.
Variants at the floor of the assay were thinned out.

Assays:
[1] = tested on: biotinyl-Phe-oxazolone; assay: self-aminoacylation, catalytic enhancement (BFO) (fold over background); higher = more active; k-Seq, kA / k0A0; sequences stand for … in GGGAAUGGAUCCACAUCUACGAAUUC…UUCACUGCAGACUUGACGAAGCUG
Summary of the method: (§1)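 Mutagenized RNA pools with a 21-nt variable region (0.43 μM) reacted with each biotinyl-aminoacyl-oxazolone at 2–1250 μM. Reactions ran in 50 μL HEPES/NaCl/KCl/MgCl2/CaCl2 buffer with 5% acetonitrile, pH 6.9–7.0, for 90 minutes at room temperature. Streptavidin-captured RNA was quantified by triplicate qPCR and Illumina sequencing, and per-sequence fraction reacted was fit to a pseudo-first-order model with 1000 bootstraps. Catalytic enhancement is median kA divided by the uncatalyzed rate, the low-activity peak of a bimodal Gaussian fit.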

[2] = tested on: biotinyl-Ile-oxazolone; assay: self-aminoacylation, catalytic enhancement (BIO) (fold over background); higher = more active; k-Seq, kA / k0A0; sequences stand for … in GGGAAUGGAUCCACAUCUACGAAUUC…UUCACUGCAGACUUGACGAAGCUG
Summary of the method: as §1

[3] = tested on: biotinyl-Val-oxazolone; assay: self-aminoacylation, catalytic enhancement (BVO) (fold over background); higher = more active; k-Seq, kA / k0A0; sequences stand for … in GGGAAUGGAUCCACAUCUACGAAUUC…UUCACUGCAGACUUGACGAAGCUG
Summary of the method: as §1

[4] = tested on: biotinyl-Trp-oxazolone; assay: self-aminoacylation, catalytic enhancement (BWO) (fold over background); higher = more active; k-Seq, kA / k0A0; sequences stand for … in GGGAAUGGAUCCACAUCUACGAAUUC…UUCACUGCAGACUUGACGAAGCUG
Summary of the method: as §1

[5] = tested on: biotinyl-Met-oxazolone; assay: self-aminoacylation, catalytic enhancement (BMO) (fold over background); higher = more active; k-Seq, kA / k0A0; sequences stand for … in GGGAAUGGAUCCACAUCUACGAAUUC…UUCACUGCAGACUUGACGAAGCUG
Summary of the method: as §1

[6] = tested on: biotinyl-Leu-oxazolone; assay: self-aminoacylation, catalytic enhancement (BLO) (fold over background); higher = more active; k-Seq, kA / k0A0; sequences stand for … in GGGAAUGGAUCCACAUCUACGAAUUC…UUCACUGCAGACUUGACGAAGCUG
Summary of the method: as §1

Sequence	self-aminoacylation [1]	self-aminoacylation [2]	self-aminoacylation [3]	self-aminoacylation [4]	self-aminoacylation [5]	self-aminoacylation [6]
CCACACUCCAAGUAAUCGGUC [Fam1B.1 aminoacylation ribozyme variant]	1.97	1.01	0.95	1.29	0.951	0.919
AAGUUUGCUAAAAGUCGCAAU [Fam3.1 aminoacylation ribozyme variant]	1.15	1.24	1.17	1.69	1.37	0.929
CCACACAUCAAGCAGUCGGUC [Fam1B.1 aminoacylation ribozyme variant]	0.847	0.93	1.05	0.457	0.686	0.799
AUUACCCUGGUCAUAGGGUGA [Fam2.1 aminoacylation ribozyme variant]	42.3	4.03	3.12	7.12	6.67	7.73
AUUCACCUGCGUCAUCGGGUG [Fam2.2 aminoacylation ribozyme variant]	49.4	5.17	5.41	7.09	7.79	10.6
AUACUUCAAACAAUAGGUCUG [Fam1A.1 aminoacylation ribozyme variant]	1.25	1.08	0.923	0.803	0.812	0.835
AUUCCCCUGGUCAUCGAGAGA [Fam2.1 aminoacylation ribozyme variant]	3.27	1.46	1.47	1.96	1.68	1.17
AAGUUUCCUAAUAGUCACAAG [Fam3.1 aminoacylation ribozyme variant]	2.29	1.8	1.61	1.23	1.77	1.64
GCACACUUCAAGCCAUCGGUC [Fam1B.1 aminoacylation ribozyme variant]	8.33	2.81	2.57	3.87	2.32	2.81
CUACUCCAAACAAUCGGCCUG [Fam1A.1 aminoacylation ribozyme variant]	3.54	1.65	1.42	3.22	1.38	2.07
CAACUUCAAACAAUAGGUCUG [Fam1A.1 aminoacylation ribozyme variant]	1.41	1.03	0.919	0.98	0.997	0.884
CUACUACAAACAAUCGGUCUG [Fam1A.1 aminoacylation ribozyme variant]	1.24	0.694	0.743	0.73	0.634	0.608
CUACUUUAAACAAUCGGUGUG [Fam1A.1 aminoacylation ribozyme variant]	0.998	0.722	0.737	0.673	0.925	0.855
GUUCACCUGGGUCAUCGGGUG [Fam2.2 aminoacylation ribozyme variant]	39.4	4.47	5.58	8.32	5.48	5.35
CUACUUCAAACAAGGGGUCUG [Fam1A.1 aminoacylation ribozyme variant]	0.71	0.773	0.801	0.593	0.746	0.748
AAGAUUGCUAAUAGUCUCAAG [Fam3.1 aminoacylation ribozyme variant]	1.48	1.1	1.08	1.18	0.751	1.09
CCACCCCUCAAGCAAUCGGUC [Fam1B.1 aminoacylation ribozyme variant]	1.64	1.18	1.27	1.14	1.05	1.28
AAGUUUGGUAUUAGUCGCAAG [Fam3.1 aminoacylation ribozyme variant]	2.44	1.65	1.47	1.74	1.51	1.5
CGACACCUCAAGCAAUCGGUC [Fam1B.1 aminoacylation ribozyme variant]	1.16	0.973	1.06	1.17	1.03	0.749
CUACUCCAAACAAUCGGUGUG [Fam1A.1 aminoacylation ribozyme variant]	1.03	0.733	0.879	0.752	0.945	0.964
AUUCACCUUUGUCAUCGGGUG [Fam2.2 aminoacylation ribozyme variant]	25.4	3.14	3.11	4.62	4.43	5.41
AUACUUCAAACAAUCGUUCUG [Fam1A.1 aminoacylation ribozyme variant]	1.23	0.709	0.745	0.897	0.81	0.706
AGGUUUGCUAAUAGGCGCAAG [Fam3.1 aminoacylation ribozyme variant]	1.16	0.85	0.734	1.18	0.736	0.626
CCACACUUCAAGGAAUCGGUU [Fam1B.1 aminoacylation ribozyme variant]	0.969	1.34	1.57	1.16	1.39	1.43
CCACACUUCAAGCGACCGGUC [Fam1B.1 aminoacylation ribozyme variant]	0.483	1.22	1.52	1.63	1.11	1.33
AGGUUUGGUAAUAGUCGCAAG [Fam3.1 aminoacylation ribozyme variant]	3.19	1.82	1.41	2.22	1.72	1.77

Sequence	self-aminoacylation [1]	self-aminoacylation [2]	self-aminoacylation [3]	self-aminoacylation [4]	self-aminoacylation [5]	self-aminoacylation [6]
ACUCACCUAGGACAUCGGGUG [Fam2.2 aminoacylation ribozyme variant]	20.1	3.36	4.87	4.88	3.82	4.64
ACCACCCUGGUCAUCGAGUGA [Fam2.1 aminoacylation ribozyme variant]	27.9	4.75	5.17	9.59	10.1	9.22
CCACACUUCAAGUACUCGGUC [Fam1B.1 aminoacylation ribozyme variant]	0.703	1.17	1.09	0.789	1.06	0.875
AUAACCCUGGUCAUCGAUUGA [Fam2.1 aminoacylation ribozyme variant]	0.646	0.94	0.974	0.392	0.883	1.02
AUUCACCUAGCUCAACGGGUG [Fam2.2 aminoacylation ribozyme variant]	6.75	1.37	1.36	1.95	1.88	2.28
CUUCUUCAAUCAAUCGGUCUG [Fam1A.1 aminoacylation ribozyme variant]	18.9	0.975	0.956	11.3	0.986	1.21
CUACUUCAAAAAAUCGGUCCG [Fam1A.1 aminoacylation ribozyme variant]	1.57	0.724	0.604	1.31	0.749	0.761
AUUCGCCUAGGUCAUCUGGUG [Fam2.2 aminoacylation ribozyme variant]	19.3	2.24	2.23	3.3	2.96	3.87
AUUCACCUCGGUCAUCCGGUG [Fam2.2 aminoacylation ribozyme variant]	78.8	6.84	7.28	11.1	12.2	14
CUACUUCAAACGAUGGGUCUG [Fam1A.1 aminoacylation ribozyme variant]	0.674	0.746	1	0.62	0.58	0.764
AUUAACCUAGUCAUCGAGUGA [Fam2.1 aminoacylation ribozyme variant]	15.5	2.94	2.96	7.12	4.95	5.13
AUUCACCUAGGUCAUCCGGUG [Fam2.2 aminoacylation ribozyme variant]	44.9	4.67	4.69	6.3	6.35	8.38
CCACACUUCAAGCUAUCGGGC [Fam1B.1 aminoacylation ribozyme variant]	1.57	1.67	1.76	2.2	1.46	1.45
AUACACCUGGGUCAUCGGGUG [Fam2.2 aminoacylation ribozyme variant]	14.8	3.31	3.54	3.69	4.39	4.41
AUUCACCUAGGUCAUCGAGGG [Fam2.2 aminoacylation ribozyme variant]	3.09	1.58	1.43	1.1	2.19	2.89
AUUACCCUGGUCAUGGAGUCA [Fam2.1 aminoacylation ribozyme variant]	0.746	0.907	1.01	0.594	0.798	0.838
AUGACCCUGGUCAGCGAGUGA [Fam2.1 aminoacylation ribozyme variant]	24.2	3.46	2.94	6.08	4.85	5.66
AUUAGCCUGGUCAUCGAGUGA [Fam2.1 aminoacylation ribozyme variant]	21.7	4.61	4.55	9.2	7.22	7.65
UUACUUCAAGCAAUCGGUCUG [Fam1A.1 aminoacylation ribozyme variant]	5.97	0.993	0.95	3.89	1.12	1.26
CUACUUCCACCAAUCGGUCUG [Fam1A.1 aminoacylation ribozyme variant]	0.84	0.912	0.877	0.387	0.684	0.793
CUACUUCAAACAGUUGGUCUG [Fam1A.1 aminoacylation ribozyme variant]	0.982	0.893	0.736	0.595	0.538	0.79
AUUACCUUGGUCAUUGAGUGA [Fam2.1 aminoacylation ribozyme variant]	32.4	4.08	4.11	10.2	8.51	7.89
AAUACCCUUGUCAUCGAGUGA [Fam2.1 aminoacylation ribozyme variant]	5.23	2.42	2.43	5.93	4.58	4.72
CCACACUUCAAGCAAUAGGUG [Fam1B.1 aminoacylation ribozyme variant]	4.08	1.85	1.65	2.55	2.17	2.81
AUUACGCUGGUCAUCGAGUAA [Fam2.1 aminoacylation ribozyme variant]	0.975	1.6	1.53	1.8	1.43	1.26
